Data taken from patent US8889621B2, “Inhibiting binding of FGF23 to the binary FGFR-Klotho complex for the treatment of hypophosphatemia” (New York University, priority 2009, dated 2014).
“Also recorded” adds a separate entry of the source.

B1: FGF23^28-251: human FGF23 (A28 to I251), bioactive full-length ligand expressed in E. coli (protein, listed as Homo sapiens)
chain: ASPLLGSSWGGLIHLYTATARNSYHLQIHKNGHVDGAPHQTIYSALMIRSEDAGFVVITGVMSRRYLCMDFRGNIFGSHYFDPENCRFQHQTLENGYDVYHSPQYHFLVSLGRAKRAFLPGMNPPPYSQFLSRRNEIPLIHFNTPIPRRHTRSAEDDSERDPLNVLKPRARMTPAPASCSQELPSAEDNSPMASDPLGVVRGGRVNTHAGGTGPEGCRPFAKFI
B2: FGF23^180-251: 72-amino acid C-terminal tail of human FGF23 (S180 to I251), expressed in E. coli (protein, listed as Homo sapiens)
chain: SAEDDSERDPLNVLKPRARMTPAPASCSQELPSAEDNSPMASDPLGVVRGGRVNTHAGGTGPEGCRPFAKFI

Test system: NaPi-2A
Assay: NaPi-2A protein abundance in apical brush border membrane of rat kidney
Type: in vivo
Settings: IV 0.1 μg kg body weight^−1, 3 h post injection, vs vehicle
Procedure: Immunoblot analysis of NaPi-2A and NaPi-2C protein abundance in renal cortex tissue and isolated brush border membrane vesicles (BBMV), and NaPi-2A immunostaining of renal tissue were performed as described (Bacic et al., “Activation of Dopamine Dl-like Receptors Induces Acute Internalization of the Renal Na^+/phosphate Cotransporter NaPi-IIa in Mouse Kidney and OK cells,” Am J Physiol Renal Physiol 288(4):F740-747 (2005), Loffing et al., “Renal Na/H Exchanger NHE-3 and Na—PO4 Cotransporter NaPi-2 Protein Expression in Glucocorticoid Excess and Deficient States,” J Am Soc Nephrol 9(9):1560-1567 (1998), Moe et al., “Dietary NaCl Modulates Na(+)-H+ Antiporter Activity in Renal Cortical Apical Membrane Vesicles,” Am J Physiol 260(1 Pt 2):F130-137 (1991), which are hereby incorporated by reference in their entirety).
For immunoblot, rat kidney cortices were dissected and homogenized, and BBMV were isolated (Loffing et al., “Renal Na/H Exchanger NHE-3 and Na—PO4 Cotransporter NaPi-2 Protein Expression in Glucocorticoid Excess and Deficient States,” J Am Soc Nephrol 9(9):1560-1567 (1998), Moe et al., “Dietary NaCl Modulates Na(+)-H+ Antiporter Activity in Renal Cortical Apical Membrane Vesicles. Am J Physiol 260(1 Pt 2):F130-137 (1991), which are hereby incorporated by reference in their entirety). […]

Row | Molecule | NaPi-2A protein expression in the apical brush border membrane
1 | B1 | decrease; also recorded: diminished
2 | B2 | increased
